What all share (assay): EMSA
Conditions in all cases: EMSA: 0.4 nM biotinylated probe, 10 mM Tris-HCl pH 7.5, 1 mM DTT, 10 mM MgCl2, 400 mM KCl, 0.05% NP-40, 70C 10 min; 5% PAGE, 0.5x TBE

The target in series [1] is T1, TkTrpY (TK1227 protein) (Thermococcus kodakarensis KOD1) (UniProt Q5JGI5).
T1 sequence: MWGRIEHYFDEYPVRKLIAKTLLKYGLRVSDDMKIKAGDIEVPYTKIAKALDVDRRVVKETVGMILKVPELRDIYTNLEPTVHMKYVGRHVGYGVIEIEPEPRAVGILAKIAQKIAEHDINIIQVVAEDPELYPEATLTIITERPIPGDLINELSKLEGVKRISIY

For series [2], the target named is T2, TK2229 protein (Thermococcus kodakarensis KOD1) (UniProt Q5JHP9).
T2 sequence: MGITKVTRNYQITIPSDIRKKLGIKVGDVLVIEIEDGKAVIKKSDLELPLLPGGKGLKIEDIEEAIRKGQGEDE

Series [3] has as its target T3, TK1227 protein (IVT) (Thermococcus kodakarensis KOD1) (UniProt Q5JGI5).
T3 sequence: T1 sequence

Series [4] concerns the target T4, TK0888 protein (Thermococcus kodakarensis KOD1) (UniProt Q5JI32).
T4 sequence: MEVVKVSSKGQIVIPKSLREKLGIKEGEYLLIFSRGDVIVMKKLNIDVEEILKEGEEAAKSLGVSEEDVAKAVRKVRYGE

Series [5] addresses T5, TK1210 protein (Thermococcus kodakarensis KOD1) (UniProt Q5JGG7).
T5 sequence: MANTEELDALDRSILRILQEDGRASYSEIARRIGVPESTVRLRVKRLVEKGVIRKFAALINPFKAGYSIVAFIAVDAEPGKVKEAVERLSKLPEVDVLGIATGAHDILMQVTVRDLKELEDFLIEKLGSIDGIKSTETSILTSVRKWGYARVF

Series [6] addresses T6, TK0271 protein (IVT) (Thermococcus kodakarensis KOD1) (UniProt Q5JFW7).
T6 sequence: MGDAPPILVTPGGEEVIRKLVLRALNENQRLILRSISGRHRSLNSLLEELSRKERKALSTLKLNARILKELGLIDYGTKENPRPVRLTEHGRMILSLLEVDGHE

Series [7] addresses T7, TK1489 protein (Thermococcus kodakarensis KOD1) (UniProt Q5JJD9).
T7 sequence: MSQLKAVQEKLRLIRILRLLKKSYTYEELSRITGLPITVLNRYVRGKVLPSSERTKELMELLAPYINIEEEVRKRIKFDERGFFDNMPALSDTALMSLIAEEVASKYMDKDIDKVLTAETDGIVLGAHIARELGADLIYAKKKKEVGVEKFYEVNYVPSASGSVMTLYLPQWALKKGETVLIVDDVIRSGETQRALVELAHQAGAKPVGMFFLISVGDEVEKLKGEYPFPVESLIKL

Series [8] deals with T8, Tar (TK0271 protein) (Thermococcus kodakarensis KOD1) (UniProt Q5JFW7).
T8 sequence: T6 sequence

Series [9] addresses T9, TK0142 protein (Thermococcus kodakarensis KOD1) (UniProt Q5JFH4).
T9 sequence: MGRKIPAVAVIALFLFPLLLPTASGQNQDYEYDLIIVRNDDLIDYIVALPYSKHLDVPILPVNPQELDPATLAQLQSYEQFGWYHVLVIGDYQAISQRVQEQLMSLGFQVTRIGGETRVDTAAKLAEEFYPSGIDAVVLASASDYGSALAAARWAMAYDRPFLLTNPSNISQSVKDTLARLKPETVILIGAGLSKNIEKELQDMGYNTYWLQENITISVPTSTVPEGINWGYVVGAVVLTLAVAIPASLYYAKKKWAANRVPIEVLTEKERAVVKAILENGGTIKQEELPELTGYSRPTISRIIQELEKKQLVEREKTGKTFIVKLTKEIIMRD

In series [10] the target is T10, TK1955 protein (Thermococcus kodakarensis KOD1) (UniProt Q5JDN7).
T10 sequence: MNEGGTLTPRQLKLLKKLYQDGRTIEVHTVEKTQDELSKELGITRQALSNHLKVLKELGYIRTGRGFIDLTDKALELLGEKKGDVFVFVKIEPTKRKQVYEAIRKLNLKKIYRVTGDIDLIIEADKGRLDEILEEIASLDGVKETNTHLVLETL

Series [11] addresses T11, TK1339 protein (Thermococcus kodakarensis KOD1) (UniProt Q5JGU9).
T11 sequence: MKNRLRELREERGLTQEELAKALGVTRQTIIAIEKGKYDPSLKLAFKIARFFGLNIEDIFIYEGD

Series [12] deals with T12, TK0169 protein (Thermococcus kodakarensis KOD1) (UniProt Q5JFL2).
T12 sequence: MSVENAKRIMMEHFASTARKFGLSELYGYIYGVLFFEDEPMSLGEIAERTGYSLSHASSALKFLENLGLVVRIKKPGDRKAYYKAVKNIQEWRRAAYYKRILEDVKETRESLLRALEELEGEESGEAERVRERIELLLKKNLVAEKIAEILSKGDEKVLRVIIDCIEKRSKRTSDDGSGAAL

Series [13] has as its target T13, TK1272 protein (Thermococcus kodakarensis KOD1) (UniProt Q5JGN9).
T13 sequence: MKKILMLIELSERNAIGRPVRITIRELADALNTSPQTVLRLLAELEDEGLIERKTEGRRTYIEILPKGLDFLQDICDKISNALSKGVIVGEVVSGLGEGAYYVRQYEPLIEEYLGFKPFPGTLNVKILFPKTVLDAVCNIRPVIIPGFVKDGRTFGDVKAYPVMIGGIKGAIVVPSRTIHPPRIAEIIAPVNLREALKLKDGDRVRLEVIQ

The target of series [14] is T14, TK1881 protein (Thermococcus kodakarensis KOD1) (UniProt Q5JEN6).
T14 sequence: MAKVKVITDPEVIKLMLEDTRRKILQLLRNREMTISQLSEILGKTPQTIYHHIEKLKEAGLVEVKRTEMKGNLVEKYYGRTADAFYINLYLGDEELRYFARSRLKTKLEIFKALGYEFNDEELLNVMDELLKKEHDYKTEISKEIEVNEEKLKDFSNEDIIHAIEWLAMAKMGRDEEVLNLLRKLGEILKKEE

Series [15] addresses T15, TK0063 protein (Thermococcus kodakarensis KOD1) (UniProt Q5JEG2).
T15 sequence: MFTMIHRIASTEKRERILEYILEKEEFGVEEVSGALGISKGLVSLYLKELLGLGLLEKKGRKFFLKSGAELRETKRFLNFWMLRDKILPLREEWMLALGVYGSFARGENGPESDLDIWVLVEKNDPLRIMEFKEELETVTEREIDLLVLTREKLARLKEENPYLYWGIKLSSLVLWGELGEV

In series [16] the target is T16, TK2190 protein (Thermococcus kodakarensis KOD1) (UniProt Q5JHK1).
T16 sequence: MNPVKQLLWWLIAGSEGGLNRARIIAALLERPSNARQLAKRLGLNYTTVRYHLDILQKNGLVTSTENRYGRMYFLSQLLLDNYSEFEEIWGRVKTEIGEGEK

Turning to “GACCACCCGCTCAGAAAAGGACGTCGTAAGGACAAGTACACCGTTATTCTCTACCAGGCAACCGTACGAACTATTCAAAGTTCACCCTTTGAAGAAAGGCAAACATTTTTGTTTAACAAAAACACTTTTGTTAGCGCAAACTATTTAAACAACCGTTGTATATCACAGATGGTGATATATATGGTTGAGC (double strand) [TK0705 (GAPN) promoter]”, the binding entry in series [1] is “binds more weakly”.
Take “GACTTCGGCTTTCTGATGGTCGGAAGGGACGTGGAAAATGCGAACGAAGCGATAAAAATGTTTTTGGAGGAGGTTAAACGAGGGCCTTAACGCCCTCTCGGTCTTTTTAGCTACTCCCTTGGACACCTCAGCATGTCCAAAGCCTTATATCCCAACTCCCCCTTTTGACACCGGTGAGTTCAAATGGGTGATGGTTTTTGGATTAAGC (double strand) [trp promoter (TK0252)]”: the binding result in series [2], in series [3], in series [4], in series [5], in [6] and in series [7] was “binds” each time. In addition, the binding result in series [8], in [9], in series [10], in series [11], in [12] and in [13] was “binds” throughout. Besides, the binding entry in [14], in [15] and in series [16] was “binds” throughout. Further, the dissociation constant (Kd) in series [8] turned out to be 5 nM.
For “GCTACTTCCATCCTCCTCTGGAGAAGCTGGAGAATTTCCCGGTCAATCTCGTCTATCCTTCTCCTCAGAATGGCAAGTTCTACAAGATCAGGACTCGATATTGGCGGGACATCACCGTCACCGTTTTGAGCTTGAAGTTCGAAGATTTAACCTTTTGGACAGGTTCACCTAACCATCCCCTCCCAGGCCCTCCTCCTCAGGAG (double strand) [tyr-phe promoter (TK0261)]”, in series [8], the Kd result was “binds”.
Turning to “GGACGCCTGTTTGTCAAATCGACAAAAATACGCCAGTTTTCACACTGATTTTTAACAGATTGATGAGATGGACGTCCTTTTTTGGGAATTGGACAGGCAAACCTGGCGAATAGTTTAAATAGGGTTGCTGATTCATCCGTCTCCGGTGATCGGTGATGTCCCGCCAATTTATGAAGTCTTCAAACCAGGTGATGTCCCGCCAATGGGTGATGC (double strand) [aro promoter (TK0271)]”, the Kd entry in series [8] is listed as “binds”.
For the substance “TGCGGGCCATCATCATCACCCAATACCTTTGATGTGGGTAAAACATGGGGAGGTTATATACTTTATGTCCCTCAGGGACTTGGCAATGAAACTTTTAAGAATTTCGTCCGATTCTAGAATCAAACTGTAAAAGACCCATATTTTACAATAGCAGCCAGGAAAGAATATTAAACAGAAAATAAGGGATTAAATGCCGTTATCCCCA (double strand) [TK1899 (radA) promoter]”, the binding entry in [8] is given as “binds more weakly”.
Consider trp promoter (TK0252), for which the Kd in [8] was 5 nM.

These data come from paper PMC6737238.
